Data from patent publication US20250222032A1 (published 2025).

Experiments:
[1] = molecular target: dextramers composed of HLA-A*11:01 complexes loaded with the RAS-WT peptide (human); experiment: dual dextramer labeling of TCR T3 transduced T cells, flow cytometry
[2] = molecular target: T1, RAS G12D (KRAS, also HRAS and NRAS) peptide on HLA-A*11:01 (human); experiment: cytokine release
T1 peptide: VVVGADGVGK

[3] = molecular target: T2, RAS G12D (KRAS, also HRAS and NRAS) peptide on HLA-A*11:01 (human); experiment: cytokine release
T2 peptide: VVGADGVGK

[4] = molecular target: T3, RAS G12C peptide on HLA-A*11:01 (human); experiment: cytokine release
T3 peptide: VVVGACGVGK

[5] = molecular target: T4, RAS wild type (KRAS, also HRAS and NRAS) peptide on HLA-A*11:01 (human); experiment: multimer staining
T4 peptide: VVVGAGGVGK

B1: TCR T3 (TCR, V domains shown)
Valpha: GQQLNQSPQSMFIQEGEDVSMNCTSSSIFNTWLWYKQDPGEGPVLLIALYKAGELTSNGRLTAQFGITRKDSFLNISASIPSDVGIYFCAGRREGAQKLVFGQGTRLTINP
Vbeta: GAGVSQSPRYKVAKRGQDVALRCDPISGHVSLFWYQQALGQGPEFLTYFQNEAQLDKSGLPSDRFFAERPEGSVSTLKIQRTQQEDSAVYLCASSSTLMGVNIQYFGAGTRLSVL
With B1 the fraction of the T cells that bound the dextramers [1] was 60%, the binding result [2] was “recognises” and the binding result [3] was “recognises”. B1: recognises [4]; recognises [5].
